Source: publication PMC6205631, “Topological in vitro loading of the budding yeast cohesin ring onto DNA” (Life Science Alliance, 2018)

T1: Scc3 (budding yeast, UniProt P40541 1-1150)
T1 construct: Scc3, budding yeast cohesin subunit; genomic DNA encoding Scc3; also called HEAT repeat subunit Scc3; source: co-purified (IgG agarose, heparin, Superose 6)
T1 sequence (looked up): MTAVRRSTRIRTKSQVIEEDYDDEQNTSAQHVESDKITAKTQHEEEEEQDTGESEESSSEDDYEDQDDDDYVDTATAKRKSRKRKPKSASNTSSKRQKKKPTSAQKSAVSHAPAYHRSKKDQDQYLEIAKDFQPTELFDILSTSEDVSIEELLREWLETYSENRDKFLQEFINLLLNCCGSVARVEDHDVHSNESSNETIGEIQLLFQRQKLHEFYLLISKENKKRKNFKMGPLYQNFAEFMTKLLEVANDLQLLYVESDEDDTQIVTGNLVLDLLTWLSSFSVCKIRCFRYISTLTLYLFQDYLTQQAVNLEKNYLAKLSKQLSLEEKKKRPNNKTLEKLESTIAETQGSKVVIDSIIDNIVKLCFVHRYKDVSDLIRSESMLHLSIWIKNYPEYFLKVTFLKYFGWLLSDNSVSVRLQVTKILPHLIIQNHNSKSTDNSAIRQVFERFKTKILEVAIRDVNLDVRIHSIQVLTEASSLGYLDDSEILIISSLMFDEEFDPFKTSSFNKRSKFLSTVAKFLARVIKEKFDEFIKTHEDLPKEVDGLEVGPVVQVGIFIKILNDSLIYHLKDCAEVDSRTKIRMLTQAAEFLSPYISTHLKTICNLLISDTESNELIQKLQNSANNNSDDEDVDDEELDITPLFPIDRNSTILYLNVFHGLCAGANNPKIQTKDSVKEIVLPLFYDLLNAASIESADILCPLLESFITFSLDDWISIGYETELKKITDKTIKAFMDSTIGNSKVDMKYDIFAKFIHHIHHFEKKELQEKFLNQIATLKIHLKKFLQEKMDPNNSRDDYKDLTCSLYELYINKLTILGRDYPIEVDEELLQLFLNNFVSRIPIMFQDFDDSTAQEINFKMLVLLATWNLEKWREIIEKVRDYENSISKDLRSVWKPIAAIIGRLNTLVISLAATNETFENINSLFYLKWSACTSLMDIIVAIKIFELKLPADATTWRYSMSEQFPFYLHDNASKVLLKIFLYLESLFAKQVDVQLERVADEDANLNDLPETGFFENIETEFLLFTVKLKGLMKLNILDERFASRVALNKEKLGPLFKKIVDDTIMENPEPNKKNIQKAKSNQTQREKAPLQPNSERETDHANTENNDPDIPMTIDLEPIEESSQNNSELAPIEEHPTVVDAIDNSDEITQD

T2: Smc3 (budding yeast, UniProt P47037 1-1230)
T2 construct: Smc3, budding yeast cohesin subunit; Smc3-encoding genomic DNA; The expression strain is eco1 deleted; also called cohesin subunit Smc3; source: co-purified (IgG agarose, heparin, Superose 6)
T2 sequence (looked up): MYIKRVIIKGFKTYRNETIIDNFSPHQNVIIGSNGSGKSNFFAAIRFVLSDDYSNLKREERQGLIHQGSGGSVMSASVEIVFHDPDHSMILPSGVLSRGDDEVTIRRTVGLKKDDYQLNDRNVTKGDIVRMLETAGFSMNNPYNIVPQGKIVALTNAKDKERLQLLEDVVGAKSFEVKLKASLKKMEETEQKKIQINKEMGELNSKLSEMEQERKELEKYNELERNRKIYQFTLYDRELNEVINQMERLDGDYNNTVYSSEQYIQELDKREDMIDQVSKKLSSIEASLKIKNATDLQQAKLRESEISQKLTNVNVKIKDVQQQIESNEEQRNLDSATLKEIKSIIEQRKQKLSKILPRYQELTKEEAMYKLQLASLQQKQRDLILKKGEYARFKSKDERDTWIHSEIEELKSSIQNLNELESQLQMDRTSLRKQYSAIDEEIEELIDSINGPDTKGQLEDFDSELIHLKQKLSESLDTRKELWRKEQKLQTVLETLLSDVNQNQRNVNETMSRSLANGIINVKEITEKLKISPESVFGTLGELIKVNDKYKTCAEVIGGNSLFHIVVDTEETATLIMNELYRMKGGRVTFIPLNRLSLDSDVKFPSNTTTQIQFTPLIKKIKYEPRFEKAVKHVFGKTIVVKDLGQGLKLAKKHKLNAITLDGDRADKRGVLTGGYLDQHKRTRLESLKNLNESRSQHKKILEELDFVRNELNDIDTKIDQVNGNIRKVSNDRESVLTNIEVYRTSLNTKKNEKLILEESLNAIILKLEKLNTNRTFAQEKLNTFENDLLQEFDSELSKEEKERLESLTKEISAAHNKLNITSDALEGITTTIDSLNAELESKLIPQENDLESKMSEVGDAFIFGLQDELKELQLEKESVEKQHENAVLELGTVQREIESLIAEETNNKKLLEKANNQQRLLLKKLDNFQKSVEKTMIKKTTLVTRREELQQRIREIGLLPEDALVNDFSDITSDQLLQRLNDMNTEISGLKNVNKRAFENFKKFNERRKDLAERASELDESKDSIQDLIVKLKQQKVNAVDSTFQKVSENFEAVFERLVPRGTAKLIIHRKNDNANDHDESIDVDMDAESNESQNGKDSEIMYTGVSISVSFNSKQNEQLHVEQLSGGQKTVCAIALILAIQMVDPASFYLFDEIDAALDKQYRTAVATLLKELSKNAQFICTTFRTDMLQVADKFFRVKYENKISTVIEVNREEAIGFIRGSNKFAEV

B1: Scc1 (natural protein, budding yeast, UniProt Q12158 1-566, looked up)
chain: MVTENPQRLTVLRLATNKGPLAQIWLASNMSNIPRGSVIQTHIAESAKEIAKASGCDDESGDNEYITLRTSGELLQGIVRVYSKQATFLLTDIKDTLTKISMLFKTSQKMTSTVNRLNTVTRVHQLMLEDAVTEREVLVTPGLEFLDDTTIPVGLMAQENSMERKVQGAAPWDTSLEVGRRFSPDEDFEHNNLSSMNLDFDIEEGPITSKSWEEGTRQSSRNFDTHENYIQDDDFPLDDAGTIGWDLGITEKNDQNNDDDDNSVEQGRRLGESIMSEEPTDFGFDLDIEKEAPAGNIDTITDAMTESQPKQTGTRRNSKLLNTKSIQIDEETENSESIASSNTYKEERSNNLLTPQPTNFTTKRLWSEITESMSYLPDPILKNFLSYESLKKRKIHNGREGSIEEPELNVSLNLTDDVISNAGTNDNSFNELTDNMSDFVPIDAGLNEAPFPEENIIDAKTRNEQTTIQTEKVRPTPGEVASKAIVQMAKILRKELSEEKEVIFTDVLKSQANTEPENITKREASRGFFDILSLATEGCIGLSQTEAFGNIKIDAKPALFERFINA
notes: Scc1, budding yeast cohesin kleisin subunit; genomic DNA encoding Scc1; also called kleisin subunit Scc1; source: co-purified (IgG agarose, heparin, Superose 6); not shown: two tandem protein A tags, C-terminal, kept
B2: Smc1 (natural protein, budding yeast, UniProt P32908 1-1225, looked up)
chain: MGRLVGLELSNFKSYRGVTKVGFGESNFTSIIGPNGSGKSNMMDAISFVLGVRSNHLRSNILKDLIYRGVLNDENSDDYDNEGAASSNPQSAYVKAFYQKGNKLVELMRIISRNGDTSYKIDGKTVSYKDYSIFLENENILIKAKNFLVFQGDVEQIAAQSPVELSRMFEEVSGSIQYKKEYEELKEKIEKLSKSATESIKNRRRIHGELKTYKEGINKNEEYRKQLDKKNELQKFQALWQLYHLEQQKEELTDKLSALNSEISSLKGKINNEMKSLQRSKSSFVKESAVISKQKSKLDYIFKDKEKLVSDLRLIKVPQQAAGKRISHIEKRIESLQKDLQRQKTYVERFETQLKVVTRSKEAFEEEIKQSARNYDKFKLNENDLKTYNCLHEKYLTEGGSILEEKIAVLNNDKREIQEELERFNKRADISKRRITEELSITGEKLDTQLNDLRVSLNEKNALHTERLHELKKLQSDIESANNQEYDLNFKLRETLVKIDDLSANQRETMKERKLRENIAMLKRFFPGVKGLVHDLCHPKKEKYGLAVSTILGKNFDSVIVENLTVAQECIAFLKKQRAGTASFIPLDTIETELPTLSLPDSQDYILSINAIDYEPEYEKAMQYVCGDSIICNTLNIAKDLKWKKGIRGKLVTIEGALIHKAGLMTGGISGDANNRWDKEEYQSLMSLKDKLLIQIDELSNGQRSNSIRAREVENSVSLLNSDIANLRTQVTQQKRSLDENRLEIKYHNDLIEKEIQPKITELKKKLDDLENTKDNLVKEKEALQNNIFKEFTSKIGFTIKEYENHSGELMRQQSKELQQLQKQILTVENKLQFETDRLSTTQRRYEKAQKDLENAQVEMKSLEEQEYAIEMKIGSIESKLEEHKNHLDELQKKFVTKQSELNSSEDILEDMNSNLQVLKRERDGIKEDIEKFDLERVTALKNCKISNINIPISSETTIDDLPISSTDNEAITISNSIDINYKGLPKKYKENNTDSARKELEQKIHEVEEILNELQPNARALERYDEAEGRFEVINNETEQLKAEEKKILNQFLKIKKKRKELFEKTFDYVSDHLDAIYRELTKNPNSNVELAGGNASLTIEDEDEPFNAGIKYHATPPLKRFKDMEYLSGGEKTVAALALLFAINSYQPSPFFVLDEVDAALDITNVQRIAAYIRRHRNPDLQFIVISLKNTMFEKSDALVGVYRQQQENSSKIITLDLSNYAE
notes: Smc1, budding yeast cohesin subunit; PCR amplified Smc1-encoding genomic DNA; also called cohesin subunit Smc1; source: co-purified (IgG agarose, heparin, Superose 6)

Columns and labels:
Scc3 = molecular target: T1, Scc3; experiment: SEC; purified cohesin tetramer, 150 nM in cohesin loading buffer (35 mM Tris-HCl pH 7.0, 20 mM NaCl, 0.5 mM MgCl2, 0.5 mM ATP), run directly or after 120 min at 29°C on Superose 6 Increase 10/300 GL in R buffer (150 mM NaCl); UV absorbance; conditions: both partners purified
Smc3 = molecular target: T2, Smc3; experiment: as above; conditions: both partners purified

Row | binding result (Scc3) | binding result (Smc3) | Binder
1 | binds |  | B1
2 |  | binds | B2
